The text below walks through data of IntAct's records for PubMed 8848052.

The labels stand for the following.
B1: mRNA export factor GLE1 (Saccharomyces cerevisiae), Q12315 (parent)
chain: MRFVFDEVFNSDTDSPEFEETCSTTSSTSSQCPTPEPSPAIKLPSFTKVGTKKLVNESVVILDPALENALRDLNLQSKLIPINEPIVAASSIIVPHSTNMPLPRASHSSLLDNAKNSNATAPLLEAIEESFQRKMQNLVLANQKEIQSIRENKRRVEEQRKRKEEEERKRKEAEEKAKREQELLRQKKDEEERKRKEAEAKLAQQKQEEERKKIEEQNEKERQLKKEHEAKLLQQKDKLGKAVTNFDKISKMFWHYKDKIAQIKQDIVLPIKKADVNVRNLLSRHKRKINPKFGQLTNSNQQLFKIQNELTQLINDTKGDSLAYHWILNFIAKAVVHQAETEVRVKPESALPLGKLTLYLLVQFPELQELFMARLVKKCPFVIGFTCEIDTEKGRQNMGWKRNNENKWEDNTSYDERMGGILSLFAIITRLQLPQEFITTTSHPFPIALSWHILARICNTPLNLITNTHFVILGSWWDAAAVQFLQAYGNQASKLLILIGEELTSRMAEKKYVGAARLRILLEAWQNNNMESFPEMSP
partner: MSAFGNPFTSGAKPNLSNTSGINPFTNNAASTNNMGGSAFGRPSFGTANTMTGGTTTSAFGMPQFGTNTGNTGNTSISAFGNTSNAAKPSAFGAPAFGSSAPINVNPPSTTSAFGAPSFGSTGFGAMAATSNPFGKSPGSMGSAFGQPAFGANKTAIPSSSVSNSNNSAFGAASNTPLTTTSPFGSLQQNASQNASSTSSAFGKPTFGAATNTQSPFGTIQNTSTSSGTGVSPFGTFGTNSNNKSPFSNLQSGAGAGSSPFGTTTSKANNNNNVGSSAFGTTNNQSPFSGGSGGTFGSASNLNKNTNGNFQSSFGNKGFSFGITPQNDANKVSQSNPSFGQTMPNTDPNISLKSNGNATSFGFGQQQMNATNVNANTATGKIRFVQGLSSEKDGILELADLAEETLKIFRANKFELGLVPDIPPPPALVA

This assay covers variants of B1. To be noted: with nup42_yeast NUP42, P49686.
L356A: the “effect of a mutation on the interaction” value is “decreasing interaction”.
